According to the RNAGym collection of RNA variant scans (doi:10.1101/gr.219683.116):

B1: mRNA-splicing (parent)
chain: AGUUGCUGCUGGGAGCUCCAGCACAGUGAAAUGGACAGAAGGGCAGAGCAA

Variants of: B1
Test: exon inclusion enrichment index; higher = more inclusion; WT1 exon 5 minigene, HEK293

Variant | exon inclusion enrichment index
G12A G13A | 1.29
G12A G13U | 0.459
G12A G13C | 1.2
C6A U7C C9A U10C G46A A47G | 1.33
C6A U7C C9A U10C G46A A47C | 3.66
C6A U7C C9A U10C G46A A47U | 2.94
G11A G12U | 0.888
G11A G12C | 1.9
G11A G12A | 0.676
A14U G15U | 0.0223
A14U G15A | 0.0161
A14U G15C | 0.0264
C6G U7C C9A U10C | 3.21
C6G U7C C9A U10A | 0.988
C6A U7G G8A C9A U10C | 0.734
C6A U7G G8A C9A U10A | 0.0362
C6G U7C U10C | 3.22
U7G C9A | 1.94
G12C G13C | 0.309
G12C G13U | 0.237
G12C G13A | 1.1
C6A U7C C9G | 1.05
C6A U7C C9U | 1.42
G8C | 1.33

Variant | exon inclusion enrichment index
G8U | 1.2
G8A | 1.09
G15C C16U | 0.0653
G15C C16G | 0.178
G15C C16A | 0.0306
C18U C19G | 0.995
C18U C19A | 0.302
C6G U7G C9A | 0.0321
G12C | 1.58
G12A | 1.7
G12U | 0.925
C6U C9A U10C | 1.46
C6U C9A U10A | 0.198
C6U U7A | 0.0485
C6U U7C | 0.178
C6U U7G | 0.0137
C6A U7C C9A U10C U27A G28A | 2.98
C6A U7C C9A U10C U27A G28C | 3.18
C6A U7C C9A U10C U27A G28U | 2.04
C6A U7C C9A U10C G38U A39G | 1.89
C6A U7C C9A U10C G38U A39U | 0.32
C6A U7C C9A U10C G38U A39C | 2.79
C6A U7C C9A U10C U32G | 0.701
C6A U7C C9A U10C U32C | 4.44

Variant | exon inclusion enrichment index
C6A U7C C9A U10C U32A | 3.06
G15C | 0.187
G15A | 0.048
G15U | 0.0812
G12U G13A | 0.608
G12U G13C | 0.721
G12U G13U | 0.199
A14G G15U | 0.0597
A14G G15A | 0.102
A14G G15C | 0.0893
C6A U7C C9A U10C G38C A39C | 3
C6A U7C C9A U10C G38C A39G | 2.65
C6A U7C C9A U10C G38C A39U | 0.489
U17G C18U | 1.5
U17G C18A | 1.73
U17G C18G | 0.0429
C6A U7G C9A | 0.123
C6G U7G C9A U10C | 0.246
C6G U7G C9A U10A | 0.0539
U10A G11A | 2.02
U10A G11C | 2.77
U10A G11U | 2.73
U17A C18G | 0.00663
U17A C18A | 0.314

Variant | exon inclusion enrichment index
U17A C18U | 1.09
C6A U7G C9A U10C | 0.53
C6A U7G C9A U10A | 0.108
C6A U7C G8C C9A U10C | 2.29
C6A U7C G8C C9A U10A | 0.587
C6A U7C C9A U10C U17G C18U | 1.64
C6A U7C C9A U10C U17G C18G | 2.57
C6A U7C C9A U10C U17G C18A | 3.29
C6A U7C C9A U10C G41A G42U | 2.71
C6A U7C C9A U10C G41A G42A | 2.59
C6A U7C C9A U10C G41A G42C | 3.64
C6A U7C G8U U10C | 2.98
C6A U7C C9A U10C G42U | 3.3
C6A U7C C9A U10C G42A | 4.25
C6A U7C C9A U10C G42C | 4.02
U7C C9A U10C | 3.46
U7C C9A U10A | 1.64
C6A U7C C9A U10C G38A A39G | 2.68
C6A U7C C9A U10C G38A A39U | 0.332
C6A U7C C9A U10C G38A A39C | 2.55
C6A U7C G8A C9U U10C | 2.34
C6U G8C C9U U10C | 1.11
C6A U7G G8C C9A U10A | 0.124
C6A U7G G8C C9A U10C | 0.907

Variant | exon inclusion enrichment index
C6U G8U C9U | 0.0925
C6G | 0.0263
C6U | 0.0511
C16G U17A | 0.231
C16G U17C | 0.114
C16G U17G | 0.0697
C9U U10G | 0.493
C9U U10C | 2.55
C9U U10A | 0.0452
G15A C16A | 0.03
G15A C16U | 0.014
G15A C16G | 0.0571
C6A U7C C9A U10C G43C C44U | 2.49
C6A U7C C9A U10C G43C C44G | 4.77
C6A U7C C9A U10C G43C C44A | 3.8
C6A U7C C9A U10C G43A C44U | 3.22
C6A U7C C9A U10C G43A C44A | 4.49
C6A U7C C9A U10C G43A C44G | 5.09
U10G | 1.82
U10A | 0.633
U10C | 2.72
C6G C9A U10C | 1.01
C6G C9A U10A | 0.229
C6A U7C C9A U10C U27G | 2.01

Variant | exon inclusion enrichment index
C6A U7C C9A U10C U27C | 5.2
C6A U7C C9A U10C U27A | 3.6
C6G G8C C9U U10C | 0.97
U7C G8A U10A | 0.437
U7C G8A U10C | 2.58
C6A U7C C9A U10C G41U G42C | 3.58
C6A U7C C9A U10C G41U G42U | 2.65
C6A U7C C9A U10C G41U G42A | 1.6
C6A U7C C9A U10C G46C | 2.33
C6A U7C C9A U10C G46U | 2.22
C6A U7C C9A U10C G46A | 2.98
C6A U7C C9A U10C U17A C18A | 3.1
C6A U7C C9A U10C U17A C18U | 2.9
C6A U7C C9A U10C U17A C18G | 2.68
C6A U7C C9A U10C G41U | 3.1
C6A U7C C9A U10C G41C | 3.93
C6A U7C C9A U10C G41A | 2.41
G11C G12A | 0.472
G11C G12C | 1.58
G11C G12U | 0.467
U7C G8U | 1.05
U7C G8C | 1.02
U7C G8A | 1.44
C6A U7C G8C C9U U10C | 2.28

Variant | exon inclusion enrichment index
C6G U7C G8A U10C | 2.05
C6G U7C G8A U10A | 0.0835
C6A U7C C9U U10G | 0.298
C6A U7C C9U U10C | 2.52
C6A U7C C9U U10A | 0.0495
C6A U7C C9A U10C U27C G28C | 3.85
C6A U7C C9A U10C U27C G28U | 2.92
C6A U7C C9A U10C U27C G28A | 3.15
C6U U7A G8U C9A | 0.17
C6A U7C C9A U10C G38C | 2.15
C6A U7C C9A U10C G38U | 1.44
C6A U7C C9A U10C G38A | 2.2
A14C | 0.099
A14G | 0.0948
A14U | 0.0353
U7A G8U | 1.83
U7A G8C | 1.67
U7A G8A | 1.49
C6A U7C G8A U10A | 0.127
C6A U7C G8A U10C | 2.3
C6A U7C C9A U10C G42A G43A | 4.69
C6A U7C C9A U10C G42A G43C | 4.49
C6A U7C C9A U10C G42A G43U | 4.39
